The source of these data is PMC12599251, “Nitration-driven structural changes in Hsp90 linked to gain of pathological functions” (Biochemical Journal, 2025).

This series deals with the molecule itself. The series can be described thus: AUC; sedimentation velocity, 42,000 rpm, 20°C, 11-15 uM protein, absorbance at 280 nm, continuous c(S) distribution (SEDFIT); peroxynitrite-treated samples dialyzed beforehand.

B1: Human Hsp90β with Y33 and Y56 replaced by phenylalanine, treated with 0.5 mM peroxynitrite (natural protein)
chain: not shown
modifications: oxidised with 0.5 mM peroxynitrite; Y276, Y484 and Y596 are named as also prone to nitration
notes: Human Hsp90β, UniProtKB P08238, gene HSP90AB1; Y33 and Y56 replaced by phenylalanine, oxidised in vitro with peroxynitrite; Peroxynitrite gives a mixed product; also called Hsp90^F33-56 + ONOO^-; Hsp90^F33-F56 + ONOO^-; source: E. coli BL21-AI, purified (Ni-NTA, Sephacryl-300 SEC), then treated with 0.5 mM peroxynitrite
As to B1, the “stoichiometry N” value was determined as 2.

B2: Human Hsp90β with Y33 and Y56 replaced by phenylalanine (natural protein)
chain: not shown
notes: Human Hsp90β, UniProtKB P08238, gene HSP90AB1; Y33 and Y56 replaced by nitration-resistant phenylalanine; also called Hsp90^F33-56; Hsp90^F33-F56; source: E. coli BL21-AI, purified (Ni-NTA, Sephacryl-300 SEC)
With B2, the “stoichiometry N” value came out at 2.

The term stoichiometry N denotes a count of units in the complex or per binding partner.
